“And” between values parts separate entries of the source, which are not always exact repeats. Equal entries are not always repeated.
B1: IL-4: carrier free recombinant rat IL-4 (R&D systems), anti-inflammatory cytokine (protein, UniProt P20096 25-147, looked up)
Interleukin-4: CNDSPLREIINTLNQVTEKGTPCTEMFVPDVLTATRNTTENELICRASRVLRKFYFPRDVPPCLKNKSGVLGELRKLCRGVSGLNSLRSCTVNESTLTTLKDFLESLKSILRGKYLQSCTSMS
B2: IL-10: carrier free recombinant rat IL-10 (R&D systems), anti-inflammatory cytokine (protein, UniProt P29456 19-178, looked up)
Interleukin-10: SKGHSIRGDNNCTHFPVSQTHMLRELRAAFSQVKTFFQKKDQLDNILLTDSLLQDFKGYLGCQALSEMIKFYLVEVMPQAENHGPEIKEHLNSLGEKLKTLWIQLRRCHRFLPCENKSKAVEQVKNDFNKLQDKGVYKAMNEFDIFINCIEAYVTLKMKN
B3: NP3+IL-4: recombinant rat IL-4 conjugated to plasma polymer nanoparticles (nanoP3, 200 nm) (conjugate, UniProt P20096 25-147, looked up)
Interleukin-4: B1 Interleukin-4
modifications: conjugated to 200 nm plasma polymer nanoparticles
B4: NP3+IL-10: recombinant rat IL-10 conjugated to 200 nm plasma polymer nanoparticles (nanoP3) (conjugate, UniProt P29456 19-178, looked up)
Interleukin-10: B2 Interleukin-10
modifications: conjugated to 200 nm plasma polymer nanoparticles

Columns and labels:
[1] = Tracking of IL-4 retention in the isolated vessel (Cy5 tag), rat carotid injury model; type: in vivo; conditions: for IL-4 retention in the vessel after restoration of blood flow: 2 minutes incubation in isolated carotid
Protocol: A) Procedural workflow of vessel injury: 1. Microintraocular forceps are inserted into ligated/isolated carotid rat segments. 2. Forceps are expanded and rotated 360° to mimic balloon injury overexpansion injury/denudation. 3. Forceps are removed, and through the same incision a small gauge catheter is inserted. 4. NP3+IL-4 solutions are delivered through the catheter and are allowed to incubate in the isolated vessel for 2 minutes. 5. The incision is sutured, and blood flow is restored.
(§1) Study approval was obtained from the Sydney Local Health District Animal Welfare Committee (protocol number 2017/006). Experiments were conducted in accordance with the Australian Code of Practice for the Care and Use of Animals for Scientific Purpose. Rats (Sprague Dawley, male, 7 weeks) were purchased from Laboratory Animal Service (NSW, Australia). Rats were given a single intramuscular injection of ketamine (75 mg/kg) and medetomidine (0.5 mg/kg) to induce anaesthesia. The common carotid artery was isolated and double ligations were spaced roughly 1 cm apart. A small incision at the distal end was made, through which microintraocular forceps (World Precision Instruments, USA) were inserted, expanded to their full width and rotated 360 degrees to injured the entire luminal surface area of the vessel. This was repeated 5 times before withdrawing the forceps, and inserting a 22G catheter into the same incision. Through the catheter, IL-4 or IL-10 bound nanoP3 solutions were injected at a concentration of 2×10^8 nanoP3 in a total volume of roughly 80 μl of RPMI media. The nanoP3 solutions were allowed to incubate for 2 minutes and then withdrawn completely from the vessel. The incision was sutured closed using a 9-0 nylon suture, and both ligations were undone to re-establish blood flow. The isolated vessel segments were then explanted 14 days later for pathological evaluation.

[2] = Interleukin surface binding to nanoP3 (fluorescence of Cy5 label in leftover washes); type: physicochemical; conditions: ultra-pure water pH 6.5, room temperature; for maximum binding efficiency of nanoP3 to interleukin in solution: Cy5-tagged interleukin; for loading capacity, further increased loading: at lower binding efficiency
Protocol: Carrier free recombinant rat IL-4 and IL-10 (R&D systems, USA) were dissolved in phosphate buffered saline (PBS) at a stock concentration of 100 ng/μl. To establish binding kinetics, each interleukin was tagged with a Lightning-link Cy5 antibody label (Novus Biologicals, USA). For every 1×10^9 nanoP3 (200 nm diameter) in ultrapure water (Thermofisher, USA), either 1.42 μg of IL-4 or 1.32 μg of IL-10 was added. Additional water was added to reach a total reaction volume of 1 ml and left to incubate for a 1 h at room temperature. Binding kinetics were performed on a Clariostar monochromator microplate reader (BMG Labtech, Germany) using the leftover washes following 1 h incubations.
The binding efficiency of nanoP3 to IL-4 in solution was maximum at 99%, corresponding to a loading capacity of 0.5±0.01 μg/10^9 particles. […] The maximum binding efficiency of nanoP3 to IL-10 was 99.9%, representing a total mass loading capacity of 0.5±0.02 μg/10^9 particles. Further loading of IL-10 onto nanoP3 was observed up to 0.80±0.02 μg/10^9 particles corresponding to a binding efficiency of 40%. All experiments were performed in ultra-pure water (pH=6.5) at room temperature. The incubation time was 30 minutes.

[3] = system: rat carotid model of vessel injury; experiment: Rat carotid injury and nanoP3 delivery model (neointima, endothelium, M2 macrophages); type: in vivo; conditions: for repair of the damaged endothelium (immunostaining, von Willebrand factor): 14 days after injury; for vascular occlusion (neointima formation percentage of cross-sectional lumen area): denuded injury roughly 60%; for vessel re-endothelialisation / healing (von Willebrand factor staining): 200 nm NP3, FIG. 8
Protocol: as §1
After 14 days in vivo, vessel explants were fixed in 4% PFA overnight and subjected to ethanol dehydrations prior to paraffin embedding. Embedded vessel segments were then sectioned in 5 μm thick slices in the longitudinal direction. M2 macrophage and luminal endothelium staining was conducted using anti-CD206 (Abcam, USA) and anti-VonWillebrand Factor (Sigma, USA) antibodies. Fluorescent imaging was conducted by using Alexa-fluor 594 secondary antibodies. Staining of neointima formation was conducted using hematoxylin & eosin (H&E) staining. Normalised hyperplasia was calculated as the total area of hyperplasia divided the area of the original vessel lumen.
Using a rat carotid model of vessel injury, the efficacy of NP3+IL-10, NP3+Sirolimus or NP3+Sulindac to treat cardiovascular pathology was determined in vivo. Carrier -free recombinant rat IL-10 (1.34 μg/10^9 nanoP3; R&D systems, USA), Sirolimus (2.50 μg/10^9 nanoP3; rapamycin, Sigma-Merck, USA), Sulindac (3.05 μg/10^9nanoP3; Sigma-Merck, USA), or a Cy7 fluorescent tag (5.03 μg/10^9 nanoP3; CF750 Antibody Label, Sigma-Merck, USA) were diluted in sterile water and conjugated to 2×10^9 nanoP3.
The rats were subjected to vessel injury as described in Example 3 except that through the catheter, IL-10, Sirolimus or Sulindac bound nanoP3 solutions were injected at a concentration of 2×10^8 nanoP3 (IL-10, 0.268 μg; Sirolimus, 0.5 μg; Sulindac 0.61 μg; Cy7, 1.01 μg), in a total volume of roughly 80 μl of RPMI media.

[4] = system: Raw 246.7 mouse macrophage cells; experiment: M2 macrophage polarisation in vitro (SEM, confocal arginase-1 staining); type: cell-based; conditions: 1×10^5 nanoP3/well, 24 hours; for expression of arginase-1 (ARG-1), confocal immunostaining: vs control and NP3 only; for M2 activation of macrophages (SEM spreading and surface roughness): vs untreated and NP3 only
Protocol: The inventors sought to investigate the effect of NP3+IL-4 on macrophage polarisation in vitro. Raw 246.7 mouse macrophage cells (ATCC, USA) were cultured at 5×10^3 cells/well in a 96 well plate. IL-4 bound nanoP3 was added into macrophage cultures at a concentration of 1×10^5 nanoP3/well. After 24 hours, macrophages were fixed in 4% paraformaldehyde prior to scanning electron microscopy (SEM) and confocal imaging. Confocal staining was performed using an Actin cytoskeletal stain (Abcam, USA) and an anti-arginase-1 antibody (Abcam, USA).
Raw 246.7 mouse macrophage cells (ATCC, USA) were cultured at 5×10^3 cells/well in a 96 well plate. IL-10 (1.34 μg/10^9 nanoP3) and Sulindac (3.05μg/10^9nanoP3) were bound to nanoP3 as described in Example 4.
NP3+IL-10 or NP3+Sulindac was added into macrophage cultures at a concentration of 1 x 10^5 nanoP3/well. After 24 hours, macrophages were fixed in 4% paraformaldehyde prior to scanning electron microscopy (SEM) and confocal imaging. Confocal staining was performed using an Actin cytoskeletal stain (Abcam, USA) and an anti-arginase-1 antibody (Abcam, USA).

[5] = system: rabbit model of iliac arterial injury; experiment: Rabbit iliac injury and nanoP3 delivery model; type: in vivo; conditions: 200 nm NP3, over seven days
Protocol: Study approval was obtained from the University of Sydney Animal Ethics Committee (AEC) protocol 2019-1653. Experiments were conducted in accordance with the Australian Code of Practice for the Care and Use of Animals for Scientific Purpose. An incision (˜1cm length) was made in the middle of the inguinal skin and the right femoral artery exposed after the blunt dissection of the muscle layers. The artery was ligated on the distal end and above the ligation, a small incision made to allow a 5F sheath (Abbott, TREK Coronary Dilatation Catheter, 3.25 mm) to be inserted. The sheath was held in place with sutures (3-0, silk). A 0.014 inch guide wire was inserted through the sheath, retrograde into the abdominal aorta. A 3.25 mm angioplasty balloon catheter was then inserted over the guide wire and advanced into the aorta. The location of NP3 delivery and the surrounding vasculature was determined by intravenous injection of contrast fluid ISOVUE 370 or OMNIPAQUE (75.5 g/100 ml), 25%-50% (v/v) contrast/saline prior to angiography.
Denudation of the iliac artery was performed by inflating the balloon at the bifurcation of the abdominal aorta to 3.1 mm diameter and withdrawn to the femoral artery slowly, 3 times (1 min per denudation). Through the main incision, the same balloon was re-inserted into the injured iliac to the bifurcation and inflated to 6-8 atm to occlude proximal blood flow. Immediately after blood flow has been occluded, a IL-10 nanoP3 solution (3×10^8 total 2 ml) was delivered through the sheath, inflating the artery, and allowed to incubate for 2 minutes before aspirating remaining solution back through the sheath. The sheath was removed, the femoral artery permanently ligated by 3-0 silk suture, followed by removal of the sheath. The exposed area was closed by 3-0 silk suture with individual stiches and double layer sutures.

Molecule | IL-4 retention in the vessel after restoration of blood flow [1] | binding efficiency at further increased loading [2] [%] | loading capacity at maximum binding efficiency [2] [μg/10^9 particles] | maximum binding efficiency of nanoP3 to interleukin in solution [2] | loading capacity, further increased loading [2] [μg/10^9 particles] | repair of the damaged endothelium (immunostaining, von Willebrand factor) [3] | vascular occlusion (neointima formation percentage of cross-sectional lumen area) ([3]; two weeks) | expression of arginase-1 (ARG-1), confocal immunostaining [4] | M2 activation of macrophages (SEM spreading and surface roughness) [4] | further results
B1 | immediately washed away | 53.1 | 0.5±0.01 | 99% and 100% | 1.1±0.02 | – | – | – | – | –
B2 | – | 40 | 0.5±0.02 | 99.9% and 100% | 0.80±0.02 | absent | – | – | – | effect on vascular occlusion ([3]; two weeks): no significant effects
B3 | significantly retained | – | – | – | – | restore full endothelium integrity | approximately 35% | significantly upregulated | increases spreading (top row) and surface roughness | M2 activation of macrophages (SEM spreading and surface roughness) ([4]; listed as nanoP3-IL4): causes M2 activation; persistence of IL-4 at substantial levels in the vessel [1]: ≥ 5 days
B4 | – | – | – | – | – | restore full endothelium integrity | ~20% | significantly upregulated | causes M2 activation | vessel re-endothelialisation / healing (von Willebrand factor staining) [3]: stimulate healing; vessel re-endothelialisation / healing (von Willebrand factor staining) ([3]; listed as NP3 delivered IL-10): stimulates vessel healing; vessel inflammation/macrophage polarisation (CD206 co-staining with CD68) ([3]; 200 nm NP3, FIG. 9): promoting M2 macrophage polarisation; neointimal hyperplasia (H&E staining) ([3]; 200 nm NP3, compared to freely delivered agents, FIG. 7): inhibition of neointimal hyperplasia; presence of M2 macrophages in treated carotid segments (immunostaining, CD206) ([3]; 14 days, compared to denuded, NP3+IL-4 and free IL-10): significant increase; incidence of thrombosis (CD31 staining) [5]: significantly reduced; neointimal hyperplasia / occlusion (H&E staining) ([5]; vs untreated controls): reduced hyperplasia; vessel inflammation, infiltration of pro-inflammatory macrophages (CD68 staining) ([5]; vs untreated controls): reduces the infiltration of pro-inflammatory macrophages; neointimal hyperplasia / occlusion (H&E staining) ([5]; vs untreated controls, listed as IL-10+NP3): reduced hyperplasia; neointimal hyperplasia / occlusion (H&E staining) ([5]; vs untreated controls, listed as NP3+IL10): reduced occlusion
